According to paper PMC11421798, “Subfunctionalization of NRC3 altered the genetic structure of the Nicotiana NRC network” (PLOS Genetics, 2024):
Where a chain is given by its changes, count along the chain named. Names and notes keep the numbering of the source.

B1: N^L21ENN (NbNRC3c with L21E) (natural protein, N. benthamiana, UniProt A0A5J6DCA3 1-888, looked up)
chain: MADVAADVAVKFLVENLMQLEIDNADLIIGIKGEVENLLQDLNDFNAFLKQAAKSRRDNEVLKSLVKKIRKVVNDAEDSIDKFVIEAKRHDDKNKFAQWFHLTHVARAKGVADEIKTIRERVKEIRQNDAYGLQAITSYDNFNQGAQERKVPVVEEDDVVGFDDEAKTVIDRLIGGSDYVVPVVGMPGLGKTTLAYKIFKDSTVEYEFFNRIWVYVSQSFNRREIFLNIISKFTRNTKQYHDTPEEELANEIKELLGKGGKYLVVLDDVWTREAWDRIKIAFPNNNKRNRVLMTTRQNNVAKSCNDKPHDLKFLTENESWELLEKRVFHKEKCPFELELPGKSIAKKCRGLPLAIVVIAGALIGKGKTTREWELVADSVGEHLINRDPENCKKLVQMSYDRLPYDLKACFLYCGAFPGGSEISAQKLICLWIAEGFIQYQGPLTLEDIAEDHLNDLVNRNLVMVMKRSSSGQIKTCRVHDMLHEFCRHEAMMEENLFQEIKRGQEHSFPEKQELASYRRLCIHSSVSEFLSTKPFAEHVRSFLCFASKKFEMPLGEIPAIPRAFPLLRVLDAESIKFSRFSREFFKLFHLRYIAFSTDSIMTIPTNIGNLWNVQTLIIETQQGTLDIKADIWNMTRLRHVCINASATLPSPKRPKSSKDNLVNRCLQTLSTIAPECCTAEVFTRTPNLKKLGVRGKIDALLETSKDGSSSGLFSNIGKLDCLEKLKLVNDTRQSRKQLHLPPAYIFPQKLKKLTLIDTWFEWKDMSILGLLEYLEVLKLKENAFRGQSWEPEDSGFPRLQVLWIERTDLSSWKASSGNFPRLKCLVLIACDNLKELPAELADVENLQLMELQSTSVSAAKSARAILKKKQQKVGSGFKLSVFPPDLGL
notes: NRC3 (NbNRC3c) of Nicotiana benthamiana with L21E in the CC domain; L21E is named only in the methods of the BN-PAGE; the results call this protein NNN; also called NNN (in the BN-PAGE); source: nrc2/3/4_KO N. benthamiana leaves, agroinfiltrated, in digitonin extract
B2: N^L21… (… with L21E) (natural protein, N. benthamiana, UniProt A0A5J6DCA3 1-888, looked up)
chain: B1 chain with S202P, T203K, N221K, I642T, C824H, N832K
notes: L21E is named only in the methods of the BN-PAGE; source: nrc2/3/4_KO N. benthamiana leaves, agroinfiltrated, in digitonin extract

Target: the molecule itself
Assay: native gel or EMSA; BN-PAGE (NativePAGE 4-16% Bis-Tris) of 1% digitonin extracts of nrc2/3/4_KO N. benthamiana leaves at 2 dpi; NRC3 variant co-expressed with Rpi-blb2, without AVRblb2

Protein	stoichiometry N
B1	2
B2	2
